# Source: FireProtDB (doi:10.1021/bi982427c)
# B1: Acyl-CoA-binding protein, P07107 (parent)
# chain: MSQAEFDKAAEEVKHLKTKPADEEMLFIYSHYKQATVGDINTERPGMLDFKGKAKWDAWNELKGTSKEDAMKAYIDKVEELKKKYGI
# Variants of: B1
# Conditions: Bos taurus; pH 5.3; 5 °C; GdnHCl; Fluorescence; Sodium acetate 0.02 M; reversible: yes; structure 2ABD; whole UniProt chain shown
Variant,ddG of mutation (higher = less stable) [kcal/mol],unfolding free energy [kcal/mol]
MSQAEFDKAAEEVKHLKTKPAAEEMLFIYSHYKQATVGDINTERPGMLDFKGKAKWDAWNELKGTSKEDAMKAYIDKVEELKKKYGI [D22A],-0.42,8.31
MSQAEFDKAAEEVKHLKTKPAHEEMLFIYSHYKQATVGDINTERPGMLDFKGKAKWDAWNELKGTSKEDAMKAYIDKVEELKKKYGI [D22H],0.56,7.33
MSQAEFDKAAEEVKHLKTKPADEEMLFIYSHYKQATVGDINTERPGMLDFKGKAKWDAWNELKGTSKEDAMKAYIDKAEELKKKYGI [V78A],1.14,6.75
MSQAEFDKAAEEVKHLKTKPADEEMLFIYSHYKQATVGDINTERPGMLDFKGMAMWDAWNELKGTSKEDAMKAYIDKVEELKKKYGI [K53M K55M],-1.01,8.9
MSQAEFDKAAEEVKHAKTKPADEEMLFIYSHYKQATVGDINTERPGMLDFKGKAKWDAWNELKGTSKEDAMKAYIDKVEELKKKYGI [L16A],3.1,4.79
MSQAEADKAAEEVKHLKTKPADEEMLFIYSHYKQATVGDINTERPGMLDFKGKAKWDAWNELKGTSKEDAMKAYIDKVEELKKKYGI [F6A],2.52,5.37
MSQAEFDKAAEEVKHLKTKPADEEMLFIYSHNKQATVGDINTERPGMLDFKGKAKWDAWNELKGTSKEDAMKAYIDKVEELKKKYGI [Y32N],1.52,6.37
MSQAEFDKAAEEAKHLKTKPADEEMLFIYSHYKQATVGDINTERPGMLDFKGKAKWDAWNELKGTSKEDAMKAYIDKVEELKKKYGI [V13A],1.69,6.2
MSQAEFDKAAEEVKHLKTKPADEEMLFIYSHYKQATVGDINTERPGMLDFKGKAKWDAWNELKGTSKADAMKAYIDKVEELKKKYGI [E68A],0.36,7.53
MSQAEFDKAAEEVKHLKTKAADEEMLFIYSHYKQATVGDINTERPGMLDFKGKAKWDAWNELKGTSKEDAMKAYIDKVEELKKKYGI [P20A],1.07,6.82
MSQAEFDKAAEEVKHLKTKPADEEMLFIYSHYKQATVGDINTERAGMLDFKGKAKWDAWNELKGTSKEDAMKAYIDKVEELKKKYGI [P45A],1.4,6.49
MSQAEFDKAAEEVKHLKTKPADEEMLFIASHYKQATVGDINTERPGMLDFKGKAKWDAWNELKGTSKEDAMKAYIDKVEELKKKYGI [Y29A],2.47,5.42
MSQAEFDKAAEEVKHLKTKPADEEMLFIFSHYKQATVGDINTERPGMLDFKGKAKWDAWNELKGTSKEDAMKAYIDKVEELKKKYGI [Y29F],1.06,6.83
MSQAEFDKAAEEVKHLKTKPADEEMAFIYSHYKQATVGDINTERPGMLDFKGKAKWDAWNELKGTSKEDAMKAYIDKVEELKKKYGI [L26A],1.02,6.87
MSQAEFDKAAEEVKHLKTKPADEEMLFIYSHYKAATVGDINTERPGMLDFKGKAKWDAWNELKGTSKEDAMKAYIDKVEELKKKYGI [Q34A],3.66,4.23
MSQAEFDKAAEEVKHLKTKPADEEMLFIYSHYKQATVGDINTERPGMLDFKGKAKWDAWNELKGTSKEDAMKAYIDKVEEAKKKYGI [L81A],3.7,4.19
MSQAEFDKAAEEVKHLKTKPADEEMLFIYSHYKQGTVGDINTERPGMLDFKGKAKWDAWNELKGTSKEDAMKAYIDKVEELKKKYGI [A35G],1.57,6.32
MSQAEFDKAAEEVKHLKTKPADEEMLFIYSHYKQATVGDINTERPGMLDFKGKAAWDAWNELKGTSKEDAMKAYIDKVEELKKKYGI [K55A],0.86,7.03
MSQAEFDKAAEEVKHLKTKPADEEMLFIYSHYEQATVGDINTERPGMLDFKGKAKWDAWNELKGTSKEDAMKAYIDKVEELKKKYGI [K33E],1.68,6.21
MSQAEFDKAAEEVKHLKTKPADEEMLFIYSHYAQATVGDINTERPGMLDFKGKAKWDAWNELKGTSKEDAMKAYIDKVEELKKKYGI [K33A],1.02,6.87
MSQAEFDKAAEEVKHLKTKPADEEMLFIYSHYRQATVGDINTERPGMLDFKGKAKWDAWNELKGTSKEDAMKAYIDKVEELKKKYGI [K33R],1.83,6.06
MSQAEFDKAAEEVKHLKTKPADEEMLFIYSHYKQATVGDINTERPGMLDFKGKAKWDAWNELKGTSKEDAMKAFIDKVEELKKKYGI [Y74F],-0.27,8.16
MSQAEFDKAAEEVKHLKTKPADEEMLFIYSHYKQATVGDINTERPGMLDFKGKAKWDAWNELKGTSKEDAMKAAIDKVEELKKKYGI [Y74A],4.83,3.06
MSQAEFDKAAEEVKHLKTKPADEEMLFIYSHYKQAAVGDINTERPGMLDFKGKAKWDAWNELKGTSKEDAMKAYIDKVEELKKKYGI [T36A],1.09,6.8
MSQAEFDKAAEEVKHLKTKPADEEMLFIYSHYKQATVGDINTERPGMLDFKGMAKWDAWNELKGTSKEDAMKAYIDKVEELKKKYGI [K53M],-0.18,8.07
